Target: endostatin incubated overnight with DXS500k (human) (UniProt P39060)
Assay: ELISA, protein/DXS500k mixture immobilized on Greiner Microlon plate, tPA in 10 mM εACA, detection with antibody 374b

Chain of endostatin incubated overnight with DXS500k (human) (P39060 1572-1754): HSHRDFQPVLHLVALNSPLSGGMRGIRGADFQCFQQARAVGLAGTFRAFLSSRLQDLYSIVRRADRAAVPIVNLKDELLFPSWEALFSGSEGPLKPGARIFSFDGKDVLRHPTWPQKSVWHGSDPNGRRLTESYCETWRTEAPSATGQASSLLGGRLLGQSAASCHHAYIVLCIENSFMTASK
Chain of tissue-type plasminogen activator (tPA, Actilyse, Boehringer-Ingelheim) (P00750 36-562 limits assumed): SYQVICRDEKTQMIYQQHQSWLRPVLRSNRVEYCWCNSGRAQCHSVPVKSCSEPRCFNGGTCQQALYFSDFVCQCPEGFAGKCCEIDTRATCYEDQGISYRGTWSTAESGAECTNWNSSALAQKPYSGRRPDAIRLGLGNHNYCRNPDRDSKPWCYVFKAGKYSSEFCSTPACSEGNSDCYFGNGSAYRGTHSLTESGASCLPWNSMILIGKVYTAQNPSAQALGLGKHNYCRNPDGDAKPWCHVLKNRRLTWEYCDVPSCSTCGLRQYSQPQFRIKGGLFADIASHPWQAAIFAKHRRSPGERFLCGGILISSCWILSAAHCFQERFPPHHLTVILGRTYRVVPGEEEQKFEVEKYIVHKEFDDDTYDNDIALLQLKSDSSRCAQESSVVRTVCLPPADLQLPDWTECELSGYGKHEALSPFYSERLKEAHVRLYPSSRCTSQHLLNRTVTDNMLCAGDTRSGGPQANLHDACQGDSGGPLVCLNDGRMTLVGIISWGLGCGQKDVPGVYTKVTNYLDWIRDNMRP

- factor of increase of tPA binding against the protein incubated with buffer only: 10.5 fold
Substance: tissue-type plasminogen activator (tPA, Actilyse, Boehringer-Ingelheim) (from UniProt P00750 36-562) (enzyme)

From patent US20080249606A1
